Assay [1] has as its target recombinant CHIKV E1–E2 fusion protein (Chikungunya virus, sequence as …). The assay can be described thus: SPR. (Surface plasmon resonance follows binding to a sensor surface in real time, without labels.)
For assay [2], the target named is T1, CHIKV VLP (strain 119067) (Chikungunya virus, strain 119067, UniProt A0A1I9WLN7). The assay can be described thus: cryo-EM structure.
Assay [3] addresses T1, CHIKV VLP (strain 119067). The assay is described as follows: dynamic light scattering.

B1: C37 Fab (papain digestion of the mAb) (Fab, V domains shown)
VH: QVQLQESGPGLVKPSETLSLTCTVSGGSIGSSSYYWGWIRQPPGKGLQWIGSFHYSGTTYYNPSLKSRVTISVDTSKNHFSLKLSSVTAADTAVYYCASRQNWNDGYFDYWGQGTLVTVSS
VL: DIQMTQSPATLSLSPGERATLFCRASQSVSSSLAWYQQKPGQAPRLLIYDASNRATGIPARFSGSGSGTDFTLTISSLEPEDFAVYYCQQRGNWPPITFGQGTRLDTK
Broadly, the Kd is the constant that tells how readily two partners part at equilibrium. On to B1, for which, in assay [1], the dissociation constant Kd is less than 1 nM.

B2: C37 Fab (recombinant, His-tag on the heavy chain) (Fab, V domains shown)
VH: B1 VH
VL: B1 VL
Turning to B2, the binding result in assay [2] is on record as “binds”.

B3: C37 IgG (antibody, V domains shown)
VH: B1 VH
VL: B1 VL
B3: in assay [3], the binding result was “binds”.

B4: C34 Fab (papain digestion of the mAb) (Fab, V domains shown)
VH: EVQLVESGGGLVQPGRSLRLSCAASGFTFDDYAMHWVRQAPGKGLEWVSGISWNSGSIGYADSVKGRFTISRDNAKNSLYLQMNSLRAEDTALYYCAKDMGYSGNDDYYGMDVWGQGTTVTVSS
VL: DIQLTQSPSSLSASVGDRVTITCRASQRISSYLNWYQQKPGKAPKLLIYGAFSLQSGVPSRFSGSGSGTDFTLTISSLQPEDFATYYCQQSYRTLTRTFGQGTKVEIK
As for B4, the equilibrium dissociation constant (Kd) in assay [1] was less than 1 nM.

B5: C34 IgG (antibody, V domains shown)
VH: B4 VH
VL: B4 VL
With B5, the binding result in assay [3] was “binds”.

B6: C34 Fab (recombinant, His-tag on the heavy chain) (Fab, V domains shown)
VH: B4 VH
VL: B4 VL
As to B6, in assay [2], the binding result was “binds”.

Values taken from PMC12583524 (Nature Communications, 2025).
